The text below walks through data of patent US8017326B2, “Methods of modulating cell death based on the Bit-1/AES regulatory pathway” (Sanford-Burnham Medical Research Institute, priority 2002, dated 2011).

Assay [1] deals with CHO cells. The assay is described as follows: Deletion analysis, cell death by trypan blue exclusion. The following applies: 10 μg construct, trypan blue exclusion 48 hours after transfection. Format: cell-based, Chinese hamster. How it is done:
The amino-terminal portion of Bit1 (residues 16-40) is hydrophobic and can serve as a transmembrane domain or signal peptide sequence. When the hydrophobicity of this portion was reduced by substitution of glycine 22 and glycine 38 by serine, Bit1 apoptotic activity was reduced.
Deletion analysis was performed as follows. The indicated deletion mutants were cloned into vector pEGFP-C1, and 10 μg of each plasmid construct transfected into CHO cells. Cell death was measured by trypan blue exclusion 48 hours after transfection.
To delineate the pro-apoptotic domain of AES, a series of AES deletion mutants was prepared as amino-terminal fusions with GFP in vector pEGFP-C1. Various AES deletion constructs (10 μg) were transfected into CHO cells, and cell death measured by trypan blue exclusion 48 hours after transfection.

Assay [2] relates to Thymosin β-4. The assay is described as follows: Northern blot of ecdysone-induced Bit1 or AES cell lines. Format: cell-based, human. The following applies: ecdysone-inducible ECR-293 cell line expressing Bit1 or AES. How it is done:
(§1) To determine whether the Bit1/AES pathway can regulate the transcription of genes other than Bcl-2, two stable cell lines were established expressing either-Bit1 or AES under control of an ecdysone-inducible promoter. To detect genes regulated by Bit1 or AES, probes were prepared from the ecdysone-induced cell lines and used to screen microarrays representing 19,000 human cDNAs. […] Down-regulation of HSP-70 and thymosin 4 in cells induced to express Bit1 or AES was confirmed by Northern blot analysis (see FIG. 7).
(§2) Northern blot analysis was performed as follows. Total RNA (10 μg) was electrophoresed on a 1% agarose-formaldehyde gel and transferred to nitrocellulose filters. The filters were hybridized using the same RNA probes as in the microarray experiments in Rapid-hyb buffer and washed according to the manufacturer's instructions (Amersham-Pharmacia).

Assay [3] concerns Heat Shock 70 kD protein 1A. Described as above. Format: cell-based, human. The following applies: ecdysone-inducible ECR-293 cell line expressing Bit1 or AES. The protocol: as §1, §2
In assay [4] the test system is CHO cells. The assay is described as follows: Scoring of rounded-up cells expressing GFP as dead cells. Format: cell-based, Chinese hamster. How it is done:
AES was assayed for pro-apoptotic activity in CHO cells transfected with a green fluorescent protein (GFP)-AES fusion protein. […] However, in HEK 293 cells, which express no detectable Bit1 by immunohistochemistry or Northern analysis, transfection of AES alone was not apoptotic.
Furthermore, apoptosis was measured in cells transfected with Bit1 (5 μg DNA), AES (5 μg DNA) or both (5 μg each). Rounded up cells expressing GFP were scored as dead cells 24 and 48 hours after the transfection.
To determine if TLE1 suppresses apoptosis induced by AES in CHO cells, cells were transfected with GFP-AES or GFP-TLE1 alone, or both. Cell death was assessed by scoring rounded-up cells expressing GFP 48 hours later.

The subject of assay [5] is CHO cells. Description: Percentage of GFP-positive detached cells after transfection. Format: cell-based, Chinese hamster. The conditions noted are these: 48 hours after transfection, GFP fusion construct. How it is done:
(§3) To determine if Bit1 and AES are both required for apoptosis induction, HEK 293T, HOP92, and CHO cells were transfected with a GFP (vector), GFP-Bit1, or GFP-AES fusion protein constructs, as indicated in FIG. 3E. The cells were examined 48 hours (HEK 293T and CHO) or 72 hours (HOP92) after transfection, and the percentage of GFP-positive detached cells was measured.

The test system of assay [6] is 19,000 human cDNAs. The assay is described as follows: cDNA microarray analysis of ecdysone-induced Bit1 or AES cell lines. Format: cell-based. The protocol:
as §1
cDNA microarray analysis was performed as follows. Total RNA was purified 48 hours after treatment with 10 μM ponasterone A (Invitrogen; San Diego, Calif.) from the ecdysone inducible cell line ECR-293-Bit1 or ECR-293-AES according to the manufacturer's instructions (Qiagen; Valencia, Calif.). cDNA probes were generated and hybridized with a microarray containing 19,000 human cDNAs from Microarray Centre at University Health Network, Ontario Cancer institute. cDNAs were labeled with fluorescent dyes (Cy3 or Cy5) using reverse transcription. Arrays were processed and hybridized essentially as described in Iyer et al., Science 283:83-87 (1999). After hybridization, arrays were scanned to measure fluorescence using a ScanArray 4000 scanner (Perkin Elmer; Meriden, Conn.). Raw data files generated by scanner software were imported into ImaGene and Gene Spring for analysis. Experiments were performed in duplicate using color reversals.

Assay [7] relates to Bcl-2 promoter. The assay is described as follows: Bcl-2 promoter reporter assay in CHO cells. Format: cell-based, Chinese hamster. The conditions noted are these: CHO cells, 1 μg Bcl-2-luciferase reporter construct, 24 hours in culture. An excerpt:
The entire CGI-147 open reading frame encodes a 27-kDa protein with no sequence similarity to other proteins. […] To denote this inhibitory transcriptional activity, the Clone-3 gene was denoted Bit1 for Bcl-2 inhibitor of transcription.
(In general: Reporter assays use an easily measured gene product as a stand-in for the process of interest.)

Assay [8] relates to HEK 293T cells. Description: Percentage of GFP-positive detached cells after transfection. Format: cell-based, human. The following applies: 48 hours after transfection, GFP fusion construct. How it is done:
as §3

Assay [9] has as its system Bit1-induced apoptosis in HEK 293 cells. Description: Co-transfection of Bit1 with anti-apoptotic proteins. The conditions noted are these: HEK 293 cells co-transfected with Bit1. Format: cell-based, human. How it is done:
Co-transfections were performed with cells plated on non-coated dishes transfected with 5 μg Bit1 plasmid alone or together with 10 μg dominant negative (DN) R-Ras, or activated H-Ras plasmid (Zou et al., Proc. Natl. Acad. Sci. USA 96: 13813-13818 (1999)). […] Expression of the transfected proteins was confirmed by immunoblotting. Apoptosis was assayed as described above.

Assay [10] shares this test system. Description: Extracellular matrix proteins and Bit1-induced apoptosis, trypan blue staining. The following applies: HEK 293 cells plated onto coated dishes, 10 μg Bit1 plasmid, 48 hours. Format: cell-based, human. How it is done:
Several extracellular matrix proteins were assayed for the ability to modulate Bit1-mediated apoptosis. Cells were plated onto bacterial culture dishes pre-coated overnight with fibronectin (Chemicon; Temecula; CA), vitronectin (SIGMA; St. Louis, Mo.) or type I collagen (SIGMA), and transfected and assayed for apoptosis as described above.
To analyze integrin involvement in protecting attached cells against the pro-apoptotic effect of Bit1, Bit1 cell lines expressing either α5β1 or αvβ1 as the main fibronectin receptor were compared. The two cell lines attach equally well to fibronectin but, like cytoplasmically truncated α5β1, αvβ1 fails to protect cells against apoptosis induced by serum deprivation (Zhang et al., supra, 1995; and Matter and Ruoslahti, supra, 2001).
Experiments with extracellular matrix proteins were performed as follows. Cells were plated onto uncoated tissue culture plates or onto bacterial culture plates coated with fibronectin, vitronectin or collagen, and allowed to attach in the presence of serum. The attachment was equal on all of these surfaces. The cells were then transfected with 10 μg of Bit1 expression plasmid; where indicated, cells were treated with a control IgG of unrelated specificity or monoclonal anti-human α5 antibody (Chemicon), both at 10 μg/ml. Cell death was measured by trypan blue staining 48 hours after the transfection.

“Also recorded” adds a separate entry of the source.

B1: AES residues 106-197: AES deletion mutant, amino-terminal fusion with GFP (protein, UniProt Q08117 106-197, looked up, fragment)
chain: GAIERAKQVTAPELNSIIRQQLQAHQLSQLQALALPLTPLPVGLQPPSLPAVSAGTGLLSLSALGSQAHLSKEDKNGHDGDTHQEDDGEKSD
modifications: GFP fusion
notes: AES deletion mutant, amino-terminal fusion with GFP
As to B1, the “pro-apoptotic activity of deletion constructs” value in assay [1] is on record as “no apoptotic activity”.

B2: AES: human AES, 197 residue Groucho/TLE family protein (SEQ ID NO:6) that associates with Bit1 (protein, listed as Homo sapiens)
chain: MMFPQSRHSGSSHLPQQLKFTTSDSCDRIKDEFQLLQAQYHSLKLECDKLASEKSEMQRHYVMYYEMSYGLNIEMHKQAEIVKRLNGICAQVLPYLSQEHQQQVLGAIERAKQVTAPELNSIIRQQLQAHQLSQLQALALPLTPLPVGLQPPSLPAVSAGTGLLSLSALGSQAHLSKEDKNGHDGDTHQEDDGEKSD
B2: in assay [2], the “Northern result, suppression of Thymosin β-4” value is 4 fold. In addition, the “Northern result, suppression of Heat Shock 70 kD protein 1A” value in assay [3] was determined as 3 fold. Further, the “time within which CHO cells receiving GFP-AES died” value in [4] (GFP-AES fusion protein) was at most 48 h. The “apoptosis induction in CHO cells” value in [5] was “induced apoptosis”. Moreover, the Bcl-2 expression result in assay [6] (Bit1 and AES stable cell lines) was “not measurably altered”. The “Microarray result: gene induced” value in [6] (at least a two-fold induction, value is the gene) is listed as “DNA replication licensing factor; also recorded: NIK-related kinase 17; also recorded: CMP-N-acetylneuraminic acid”. Also, the “Microarray result: gene suppressed” value in [6] (at least a two-fold suppression, value is the gene) is “Heat shock 70 KD protein 1A; also recorded: Thymosin β-4; also recorded: KCNAB2; also recorded: FLJ10386; also recorded: NET-5; also recorded: SRY-related HMG-box gene 4”. Also, in [7], the Bcl-2 promoter activity entry was “down-regulate”. Besides, the “effect on viability of 293T cells” value in assay [8] is “no effect on the viability”.

B3: p35: caspase inhibitor protein, transfected expression construct (protein, UniProt P08160 1-299, looked up)
Early 35 kDa protein: MCVIFPVEIDVSQTIIRDCQVDKQTRELVYINKIMNTQLTKPVLMMFNISGPIRSVTRKNNNLRDRIKSKVDEQFDQLERDYSDQMDGFHDSIKYFKDEHYSVSCQNGSVLKSKFAKILKSHDYTDKKSIEAYEKYCLPKLVDERNDYYVAVCVLKPGFENGSNQVLSFEYNPIGNKVIVPFAHEINDTGLYEYDVVAYVDSVQFDGEQFEEFVQSLILPSSFKNSEKVLYYNEASKNKSMIYKALEFTTESSWGKSEKYNWKIFCNGFIYDKKSKVLYVKLHNVTSALNKNVILNTIK
B3: in assay [9], the “effect on apoptosis induced by Bit1” value is “little or no effect”.

B4: vitronectin: extracellular matrix protein coated on culture dishes (SIGMA) (protein, UniProt P04004 20-478, looked up)
Vitronectin: DQESCKGRCTEGFNVDKKCQCDELCSYYQSCCTDYTAECKPQVTRGDVFTMPEDEYTVYDDGEEKNNATVHEQVGGPSLTSDLQAQSKGNPEQTPVLKPEEEAPAPEVGASKPEGIDSRPETLHPGRPQPPAEEELCSGKPFDAFTDLKNGSLFAFRGQYCYELDEKAVRPGYPKLIRDVWGIEGPIDAAFTRINCQGKTYLFKGSQYWRFEDGVLDPDYPRNISDGFDGIPDNVDAALALPAHSYSGRERVYFFKGKQYWEYQFQHQPSQEECEGSSLSAVFEHFAMMQRDSWEDIFELLFWGRTSAGTRQPQFISRDWHGVPGQVDAAMAGRIYISGMAPRPSLAKKQRFRHRNRKGYRSQRGHSRGRNQNSRRPSRATWLSLFSSEESNLGANNYDDYRMDWLVPATCEPIQSVFFFSGDKYYRVNLRTRRVDTVDPPYPRSIAQYWLGCPAPGHL
In the case of B4, the “protection from Bit1-induced apoptosis” value in [10] was “largely protected”.

B5: TLE2: TLE family protein (protein, UniProt Q04725 1-743, looked up)
Transducin-like enhancer …: MYPQGRHPTPLQSGQPFKFSILEICDRIKEEFQFLQAQYHSLKLECEKLASEKTEMQRHYVMYYEMSYGLNIEMHKQAEIVKRLSGICAQIIPFLTQEHQQQVLQAVERAKQVTVGELNSLIGQQLQPLSHHAPPVPLTPRPAGLVGGSATGLLALSGALAAQAQLAAAVKEDRAGVEAEGSRVERAPSRSASPSPPESLVEEERPSGPGGGGKQRADEKEPSGPYESDEDKSDYNLVVDEDQPSEPPSPATTPCGKVPICIPARRDLVDSPASLASSLGSPLPRAKELILNDLPASTPASKSCDSSPPQDASTPGPSSASHLCQLAAKPAPSTDSVALRSPLTLSSPFTTSFSLGSHSTLNGDLSVPSSYVSLHLSPQVSSSVVYGRSPVMAFESHPHLRGSSVSSSLPSIPGGKPAYSFHVSADGQMQPVPFPSDALVGAGIPRHARQLHTLAHGEVVCAVTISGSTQHVYTGGKGCVKVWDVGQPGAKTPVAQLDCLNRDNYIRSCKLLPDGRSLIVGGEASTLSIWDLAAPTPRIKAELTSSAPACYALAVSPDAKVCFSCCSDGNIVVWDLQNQTMVRQFQGHTDGASCIDISDYGTRLWTGGLDNTVRCWDLREGRQLQQHDFSSQIFSLGHCPNQDWLAVGMESSNVEILHVRKPEKYQLHLHESCVLSLKFASCGRWFVSTGKDNLLNAWRTPYGASIFQSKESSSVLSCDISRNNKYIVTGSGDKKATVYEVVY
For B5, in [4] (rounded-up GFP cells scored 48 hours later), the “effect on apoptosis induced by AES” value is on record as “modestly suppresses”.
